Data set [1] addresses T1, SvS-A2 (synthetic construct, UniProt Z9I7L2B0V8, A89H/W156Y).
T1 construct: homodimer; first resolved N-terminal residue Asp09
T1 sequence (Z9I7L2B0V8 1-361 A89H/W156Y): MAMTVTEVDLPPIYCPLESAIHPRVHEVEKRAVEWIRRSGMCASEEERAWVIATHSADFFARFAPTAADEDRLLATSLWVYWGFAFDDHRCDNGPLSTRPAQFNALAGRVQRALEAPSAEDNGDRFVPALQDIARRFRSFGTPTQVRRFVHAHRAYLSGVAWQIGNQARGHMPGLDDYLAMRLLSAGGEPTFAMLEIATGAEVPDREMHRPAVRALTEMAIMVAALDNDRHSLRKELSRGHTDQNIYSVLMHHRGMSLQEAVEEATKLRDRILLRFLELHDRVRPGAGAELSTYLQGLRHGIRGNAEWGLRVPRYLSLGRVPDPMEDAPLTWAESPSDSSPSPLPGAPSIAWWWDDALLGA
The experiment in a line: Malachite Green assay; GC-FID competition experiment. It is filed as biochemical. As to conditions: 60 µM each FPP and GGPP, ca. 400 nM enzyme, 30 °C, 3 h; library variants carry Ala89His.

The target of another data set is T2, SvS-WT (Streptomyces violens, UniProt P0DPK6).
T2 construct: extant wild-type enzyme, expressed in E. coli BL21(DE3), purified and desalted; dimeric in solution
T2 sequence (P0DPK6 1-359): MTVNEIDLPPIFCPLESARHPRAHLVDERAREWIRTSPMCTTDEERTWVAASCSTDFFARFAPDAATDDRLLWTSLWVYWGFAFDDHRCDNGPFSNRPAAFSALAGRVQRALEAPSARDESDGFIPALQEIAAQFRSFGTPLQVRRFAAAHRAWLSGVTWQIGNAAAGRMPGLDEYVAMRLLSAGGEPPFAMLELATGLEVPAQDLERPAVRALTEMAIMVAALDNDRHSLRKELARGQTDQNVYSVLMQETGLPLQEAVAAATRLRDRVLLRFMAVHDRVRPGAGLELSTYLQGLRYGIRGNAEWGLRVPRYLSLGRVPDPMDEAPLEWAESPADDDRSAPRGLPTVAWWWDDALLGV
Nature of the data set: in vitro product formation, GC. As to conditions: 2 µM enzyme, 3 h. It is filed as biochemical.

In data set [2] the target is T3, SvS-A2 (synthetic construct, UniProt Z9I7L2B0V8, A89H/A224I).
T3 construct: homodimer; first resolved N-terminal residue Asp09
T3 sequence (Z9I7L2B0V8 1-361 A89H/A224I): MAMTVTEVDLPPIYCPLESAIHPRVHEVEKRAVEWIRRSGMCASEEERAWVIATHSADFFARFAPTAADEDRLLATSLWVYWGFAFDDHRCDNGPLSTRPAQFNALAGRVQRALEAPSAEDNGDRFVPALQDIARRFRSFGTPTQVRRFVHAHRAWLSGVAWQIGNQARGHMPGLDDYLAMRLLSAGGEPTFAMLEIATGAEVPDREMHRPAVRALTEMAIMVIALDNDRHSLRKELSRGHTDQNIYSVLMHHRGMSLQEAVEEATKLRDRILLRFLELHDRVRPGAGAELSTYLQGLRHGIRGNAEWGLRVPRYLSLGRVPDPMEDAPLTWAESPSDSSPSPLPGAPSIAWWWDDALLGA
The experiment in a line: Malachite Green assay; GC-FID competition experiment. The conditions noted are these: 60 µM each FPP and GGPP, ca. 400 nM enzyme, 30 °C, 3 h; library variants carry Ala89His. It is filed as biochemical.

The target in data set [3] is spiroviolene synthase (SvS) from Streptomyces violens, extant enzyme (Streptomyces violens). Nature of the data set: SEC; size exclusion chromatography of the enzyme in solution; conditions in the Supporting Methods (not shown). Background: Size exclusion chromatography separates by hydrodynamic size, large species first.
Substrate in data set [4]: CC(C)=CCC/C(C)=C/CC/C(C)=C/CC/C(C)=C/COP(=O)(O)OP(=O)(O)O
The experiment in a line: initial rates of spiroviolene formation, cooperative fit. It is filed as biochemical, synthetic construct. The conditions noted are these: 0.5 µM enzyme, Hill coefficient fit. From the text: initial rates of spiroviolene formation, cooperative fit on SvS-A2 | The KM value for GGPP reported herein is twice as high as previously reported

Substrate in data set [5]: CC(C)=CCC/C(C)=C/CC/C(C)=C/CO[P@@](=O)(O)OP(=O)(O)O
The experiment in a line: initial rates of hedycaryol formation, Michaelis-Menten fit. The class given is biochemical, synthetic construct. As to conditions: 0.5 µM enzyme.

Data on four molecules can be found in PMC8023661, “Engineering of Ancestors as a Tool to Elucidate Structure, Mechanism, and Specificity of Extant Terpene Cyclase” (Journal of the American Chemical Society, 2021).

As for `CC(C)=CCC/C(C)=C/CC/C(C)=C/CC/C(C)=C/COP(=O)(O)OP(=O)(O)O` [GGPP], the “Malachite Green assay; GC-FID competition experiment” value at SvS-A2 [1] is “A Trp156Tyr exchange (Group III) results in a highly active and diterpene specific SvS-A2 variant”. Further, the “in vitro product formation, GC” value on SvS-WT (60 µM GGPP, 30 °C) is “both enzymes accepted FPP and GGPP as substrates”.

Turning to `CC(C)=CCC/C(C)=C/CC/C(C)=C/COP(=O)(O)OP(=O)(O)O` [FPP], the “Malachite Green assay; GC-FID competition experiment” value at SvS-A2 [2] is reported as “Ala224Ile (group IV) reverses substrate preference of the reconstructed ancestral enzyme”. In addition, the “in vitro product formation, GC” value on SvS-WT (60 µM FPP, 50 mM Tris-HCl pH 7.4, 30 °C) is reported as “the extant enzyme in fact showed higher activity with FPP than GGPP”.

Usually stoichiometry N stands for a count of units in the complex or per binding partner. “spiroviolene synthase (SvS) from Streptomyces violens, extant enzyme” returned a stoichiometry N in data set [3] of 2.

B1: SvS-A2 (synthetic construct) (protein)
chain: MAMTVTEVDLPPIYCPLESAIHPRVHEVEKRAVEWIRRSGMCASEEERAWVIATHSADFFARFAPTAADEDRLLATSLWVYWGFAFDDARCDNGPLSTRPAQFNALAGRVQRALEAPSAEDNGDRFVPALQDIARRFRSFGTPTQVRRFVHAHRAWLSGVAWQIGNQARGHMPGLDDYLAMRLLSAGGEPTFAMLEIATGAEVPDREMHRPAVRALTEMAIMVAALDNDRHSLRKELSRGHTDQNIYSVLMHHRGMSLQEAVEEATKLRDRILLRFLELHDRVRPGAGAELSTYLQGLRHGIRGNAEWGLRVPRYLSLGRVPDPMEDAPLTWAESPSDSSPSPLPGAPSIAWWWDDALLGA
notes: homodimer; first resolved N-terminal residue Asp09
Broadly, the Km is the concentration of substrate that gives half-maximal velocity. As for B1, the Km stood at 49 ± 6 µM in data set [4] and 28 ± 11 µM in data set [5]. Moreover, the kcat in data set [4] is 5.8 ± 0.6 × 10^-3 s^-1; in data set [5], 0.3 ± 0.04 × 10^-3 s^-1.
